Assay results from the RNAGym collection of RNA variant scans (doi:10.7554/elife.80360).

B1: Hairpin Ribozyme (parent)
chain: GUCCUCUUUCACGUGCGCGUGAAAGAGAGAAGUGAACCAGAGAAACACACGUUGUGGUAUAUUACCUGGUA

Variants of: B1
Assay: self-cleavage, relative activity (ratio to wild type); higher = more cleavage; co-transcriptional

Variant	self-cleavage
A24C C65U	0.402
U33A U70G	0.253
C12U C46G	0.142
A41C G68C	0.225
C12A C46U	0.119
C12A G13A	0.635
C12A G13C	0.927
A11U G15U	0.895
A30C G69U	0.124
A22G A45C	0.13
A24C G51A	0.932
G29C U60G	0.201
A36G A49U	0.204
C18G C46U	0.0966
A30C C48A	0.103
A22C G57U	0.162
C3A G56A	0.127
U62C G69U	0.169
C46A U55A	0.204
A24C A41G	0.846
U9C A30C	0.0706
A35G A39C	0.257
A28G U33A	0.157
U8G C38G	0.268

Variant	self-cleavage
G32U U55C	0.165
A41C G57A	0.128
U9C G54A	0.501
C10A A71U	0.557
C18A A61G	0.25
A23C A45U	0.207
A39G U70A	0.2
A22U G56C	0.214
A28U C46G	0.109
A30G G40U	0.0805
A39U G54A	0.122
A23G U33G	0.125
G40U G54A	0.157
A61G G68A	0.275
A35C C66A	0.293
U33A A36C	0.0569
U7G G17C	0.612
U14C C48G	0.26
C4G G25A	0.156
C18G A26G	0.828
U53C G69U	0.378
A11U U70G	0.656
A22C U63A	0.288
G15A C65G	0.326

Variant	self-cleavage
C4G U14A	0.231
G29A A35G	0.147
C6G U60A	0.496
G34C U60G	0.828
A26G U60G	0.717
A64C G69A	0.251
U8G U58C	0.725
C38A A61G	0.258
G17C C18U	0.902
A11C G40U	0.181
G19A C48U	0.179
A11C G42C	0.441
A31U A71G	0.226
C3G U63G	0.18
U2A U5G	0.166
U5A C6G	0.192
A43G U55C	0.201
G40A G42C	0.0893
U2C A61U	0.0427
U20A G25C	0.447
G13C C18U	0.817
G32C A41G	0.128
G27A U52G	0.431
G32U A41C	0.105

Variant	self-cleavage
U33A C46U	0.0735
C6U G32U	0.0839
C12G A35G	0.874
A44U G68C	0.148
G25A U62C	0.224
C18A C50G	0.309
A44C U70A	0.109
A22U A23G	0.72
C10U G51U	0.888
U55A C66G	0.24
A22C C37A	0.25
C10A U33C	0.174
U53C G56A	0.211
G27C C46A	0.0983
A23G A30C	0.115
U9A G51U	0.675
A35U U63C	0.152
G15C A47G	0.108
C6A A31C	0.1
A22C G51A	0.93
G15A G40C	0.112
A26G A49U	0.288
G13C A31U	0.0909
U5C G34A	0.78

Variant	self-cleavage
A44G A64G	0.0828
A22G C66G	0.302
A64G C66U	0.109
A39G C48U	0.0998
G19U A71C	1.39
C10G C46A	0.106
U52G U70A	0.638
A45U A59C	0.285
C37U G40U	0.178
G25U U70A	0.432
G17A G54C	0.429
U55G A71C	0.708
U7C A45C	0.136
G42C U53G	0.244
C10G A28U	0.586
U33A A71C	0.389
A39G U63C	0.158
C12A U67A	0.18
G27C A71C	0.53
A24C A35U	0.938
G19U U67A	0.131
G56A	0.174
G51U A64U	0.167
U20G A35G	0.559

Variant	self-cleavage
G32U C50G	0.162
A36U C37G	0.149
C18G G51C	1.01
C16U A30C	0.0996
U55G C65A	0.3
G17U C18A	0.966
C6G A30C	0.156
C10U A71G	0.811
A31C A43C	0.25
U55G G69A	0.178
C18G A23C	0.746
C6G C66A	0.239
A39U G42C	0.158
G13C G54U	0.532
U20A C38U	0.45
C10A C12G	0.556
G19A U63C	0.213
A28U A39G	0.143
A44C U67G	0.094
A28C G40C	0.0679
A41U A59U	0.241
G19U A49C	0.18
U52C A71C	1.51
U5A U67C	0.111

Variant	self-cleavage
U55C G68C	0.159
U5A A31C	0.156
A43C U70A	0.0723
A11C G21C	0.732
A31G U63A	0.144
G56C A61G	0.155
C3U U7G	0.464
C4U A61C	0.294
C38A A47C	0.146
C4A A24U	0.196
A47G U67C	0.129
U8A G57A	0.196
C18G G19U	0.88
C37U C48G	0.0435
A30U C46A	0.128
C6A G40U	0.103
U7G G15A	0.736
U8A G29U	0.0651
G1C G25A	0.154
C6A A49G	0.204
A61U U63G	0.187
A31C A49U	0.151
A26U C66U	0.276
C10U A49C	0.143

Variant	self-cleavage
U20A C46A	0.265
U20A G57U	0.259
A39U G40A	0.134
C6U A22C	0.493
G1C G13A	0.0408
G19U A36C	0.554
G40U U70A	0.123
G13C A39U	0.289
A41C U67A	0.27
G17U U33A	0.116
G34A U53A	1.46
A26C C37G	0.373
G1A	0.185
A47C	0.335
G15C G29A	0.148
G29U G51C	0.167
C3A A26C	0.402
U9G A39C	0.356
C4G A28U	0.0783
C3G G51C	0.238
U33C A64C	0.102
C12A G32A	0.178
A61C A71C	0.285
A36G G69A	0.414

Variant	self-cleavage
A41G A45C	0.101
U52A C65U	0.328
U5G A23C	0.431
U20A A35U	0.872
A30C U58C	0.158
A44U C46G	0.0928
U14A C65A	0.958
G13A A26G	0.778
G54A U70G	0.387
C12U C50G	0.231
G17C A44C	0.136
A11C A45U	0.128
A30C G57A	0.158
U5G G34A	0.603
C18A A45G	0.187
C16A A26G	0.911
A36C A41G	0.894
U7A U20G	0.705
A59U U60C	0.257
C6G U52C	0.595
G13A G68C	0.248
C6U U62A	0.266
U14A C18A	0.888
C12U U62A	0.148

Variant	self-cleavage
G54C U62G	0.141
A26C A47C	0.199
G17A A31U	0.105
U20G A47G	0.0572
G13C A35C	0.717
A44G C66U	0.0408
C3A A41C	1.07
C12U G25C	0.511
G56A A64U	0.135
A26C G32U	0.196
U67C U70A	0.229
C3U A44U	0.0496
A47G U70C	0.1
A11U A26C	0.305
U9G U20G	0.333
C66A A71G	0.196
A11U A28C	0.53
A11C U67C	0.225
C4U A71U	0.282
G27A A31U	0.153
C3U G32C	0.133
C3A G42C	0.214
G1C U62A	0.0347
C16A A49G	0.389

Variant	self-cleavage
G15A A22G	1.11
C6G A47C	0.235
U52G C65A	0.782
A47U G57C	0.157
G25C G27A	0.213
U53C U63A	0.177
G40C U55C	0.163
C46U A64U	0.198
U62C C65G	0.132
A35G C37G	0.422
A36C A45U	0.124
G54U A64U	0.114
A30U A45G	0.236
G25U A43U	0.217
A39C A41U	0.406
G1C A30G	0.322
G13U A23U	0.709
U5A G34C	1.27
A41U G42A	0.321
G54U G56A	0.114
A49C G69C	0.241
G32A U67C	0.131
U53A U63G	0.249
G13U C65G	0.193

Variant	self-cleavage
A24U A49C	0.104
A41G C65G	1.13
A26U U58G	0.631
A31C U62G	0.223
C48A A61C	0.201
G29U A47C	0.0936
G27A G42C	0.145
U14A A59U	0.28
G32A U52G	0.141
G40A A59G	0.0897
C3A A31G	0.425
G34C U55A	1.16
A30G U55A	0.122
C4A A30G	0.105
C6U C46G	0.204
G32U G42U	0.107
C6G G29C	0.146
G27C U53A	0.19
A11G G21A	0.764
G40U A64G	0.103
G32A G68A	0.193
U33C G40A	0.0908
A36G A39C	0.218
U20G A28G	1.01

Variant	self-cleavage
A35U C65U	0.223
A23G A64U	0.125
G27C A41C	0.228
G17U G42C	0.281
A45C G57A	0.115
G51C C65G	0.205
C4G C10U	0.198
C65A U67A	0.141
G27C A45G	0.19
C37A A47U	0.19
A44G G68A	0.155
G25A G69C	0.228
A23G A36G	0.933
G54U U62G	0.166
A30G A64G	0.141
U33G A39U	0.0926
A23U G29C	0.145
G25C C65G	0.174
U55G G56A	0.125
G13A U33A	0.165
C16U U20G	1.01
G25A G57A	0.205
U14C A22C	0.832
C10G G69U	0.142

Variant	self-cleavage
A35U G51U	0.794
A26C G54U	0.314
G17U C48G	0.0807
U63G C65A	0.0995
U9A G56C	0.0939
A11U C65G	0.308
G17A G57U	0.301
G34C A61G	0.636
G34U A61U	1.13
U60G G69U	0.101
U14A G34C	1.19
U8C A31U	0.14
G15A A71U	0.785
C10A A39U	0.262
A11U A23G	0.402
G13U U53G	0.716
U8A A35C	0.911
G19U G56A	0.16
G29C A43C	0.125
A44C G56U	0.241
C10U A59G	0.206
G21U G56U	0.147
